Measured values: the RNAGym collection of RNA variant scans (doi:10.1073/pnas.2313332121)
This sample holds only a part of the variants without activity.

B1: TPR 5TU (parent)
chain: GGAUCUUCUCGAUCUAACAAAAAAGACAAAUCUGCCACAAAGCUUGAGAGCAUCUUCGGAUGCAGAGGCGGCAGCCUUCGGUGGCGCGAUAGCGCCAACGUUCUCAACUAUGACACGCAAAACGCGUGCUCCGUUGAAUGGAGUUUAUCAUG

Variants of: B1
Experiment: polymerase ribozyme fitness, log enrichment relative to wild type (log ratio); higher = more active; in vitro selection for triplet polymerase activity
How it was run: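 Genotype fitness is the logarithm of its enrichment divided by wild-type enrichment, using inverse-variance-weighted averages of replicates. That logarithm is base 2. Enrichment was measured by Illumina sequencing of input and output libraries from one triplicate in vitro selection round, with frozen incubation at −7 °C, on PCR-built, transcribed mutant libraries of each subunit of a heterodimeric triplet polymerase ribozyme, retaining genotypes with ≥10 input reads and ≥1 read per output.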

Point of comparison: GGAUCUUCUCGAUCUAACAAAAAAGACAAAUCUGCCACAAAGCUUGAGAGCAUCUUCGGAUGCAGAUGCGGCAGCCUUCGGUGGCGCGAUAGCGCCAACGUUCUCAACUAUGACACGCAAAACGCGUGCUCCGUUGAAUGGAGUUCAUCAUG [G67U U146C], “polymerase ribozyme fitness (log ratio)” value -2.47. Against it:
- GGAUCUUCUCGAUCUAACAAAAAAGACAAAUCUGCCACAAAGCUUGAGAGCAUCUUCGGAUGCAGACGCGGCAGCCUUCGGUGACGCGAUAGCGCCAACGUUCUCAACUAUGACACGCAAAACGCGUGCUCCGUUGAAAUGAGUUUAUCAUG [G67C G84A U139A G140U] — lower, ≤ -4.2
- GGAUCUUCUCGAUCUAACAAAAAAGACAAAUCUGCCACAAAGCUUGAGAGCAUCUUCGGAUGCAGAUGCGGCAGCCUUCGGUGGCGCGAUAGCGCCAACGUUCUCAACUAUGACACGCAUAACGCGUGCUCCGUUGAAUGGAGUUUAUCAUG [G67U A120U] — higher, -2.15
- GGAUCUUCUCGAUCUAACAAAAAAGACAAAUCUGCCACAAAGCUUGAGAGCAUCUUCGGAUGCAGACGCGGCAGCCUUCGGUGGCCCGAUAGCGCAAACGUUCUCAACUAUUUCACGCAAAACGCUUGCUCCGUUGAAUGGAGUUUAUCAUG [G67C G86C C96A G112U A113U G126U] — lower, ≤ -4.2
- GGAUCUUCUCGAUCUAACAAAAAAGACAAAUCUGCCACAAAGCUUGAGAGCAUCUUCGGAUGCAGACGCGGCAGCCUUCGGUGGCGCGAUAGCACCAACGUUCUCAACUAUGACACGCAAAACGCGUGCUCCGUUGAAAGGUGUUUAUCAUG [G67C G94A U139A A142U] — lower, ≤ -4.2
- GGAUCUUCUCGAUCUAACAAAAAAGACAAAUCUGCCACAAAGCUUGAGAGCAUCUUCGGAUGCAGAUGCGGCAGCCUUCGGUGGCGCGAUAGUGCCAACGUUCUCAACUAUGACACGCAAAACGCGUGCUCCGUUGAAUGGAGUUUAUCAUG [G67U C93U] — lower, -3.74
- GGAUCUUCUCGAUCUAACAAAAAAGACAAAUCUGCCACAAAGCUUGAGAGCAUCUUCGGAUGCAGAUGCGGCAGCCUUCGGUGGCGCGAUAGCGCCAACGUGCUCAACUAUGACACGCAAAACGCGUGCUCCGUUGAAUGGAGUUUAUCAUG [G67U U102G] — lower, ≤ -4.2
- GGAUCUUCUCGAUCUAACAAAAAAGACAAAUCUGCCACAAAGCUUGAGAGCAUCUUCGGAUGCAGAGACGGCAGCCUUCGGUGGCGCGAUAGCGCCAACGUUCUCAACUAUGACACGCAAAACGCGUGCUCCGUUGAAUGGAGUUUAUCAUG [G68A] — lower, -3.29
- GGAUCUUCUCGAUCUAACAAAAAAGACAAAUCUGCCACAAAGCUUGAGAGCAUCUUCGGAUGCAGACGCGGCAGCCUUCGGUGACGCGAUAGCGCCAAUGUUCUAAACUAUGACCCGCAAAACGCGUGCUCCGUUGCAUGAAGUUUAUCAUG [G67C G84A C99U C105A A115C A137C G141A] — lower, ≤ -4.2
- GGAUCUUCUCGAUCUAACAAAAAAGACAAAUCUGCCACAAAGCUUGAGAGCAUCUUCGGAUGCAGAUGCGGCAGCCUUCGGUGGCGUGAUAGCGCCAACGUUCUCAACUAUGACACGCAAAACGCGUGCUCCGUUGAAUGGAGUUUAUCAUG [G67U C87U] — lower, -3.88
- GGAUCUUCUCGAUCUAACAAAAAAGACAAAUCUGCCACAAAGCUUGAGAGCAUCUUCGGAUGCAGAUGCGGCAGCCUUCGGUGGCGCGAUAGCGCCAACGUUCUCAACUAUGACACGCAAAACGCGUGCUCCGUUGAAUGGAGUUUAUCAUG [G67U] — within 0.2 log units, -2.55
- GGAUCUUCUCGAUCUAACAAAAAAGACAAAUCUGCCACAAAGCUUGAGAGCAUCUUCGGAUGCAGAUGCGGCAGCCUUCGGUGGCGCGCUAGCGCGAACGUUCUCCACUAUGACACGCCAAACGCGUGCUCCGUUGAAUGGAGUUUAUCAUG [G67U A89C C96G A106C A119C] — lower, ≤ -4.2
- GGAUCUUCUCGAUCUAACAAAAAAGACAAAUCUGCCACAAAGCUUGAGAGCAUCUUCGGAUGCAGAUGCGGCAGCCUUCGGUGGCGCGAUAGCCCCAACGUUCUCAACUAUGACACGCCAAACGCGUGCUCCGGUGAAUGGAGUUUCUCAUG [G67U G94C A119C U134G A147C] — lower, ≤ -4.2
- GGAUCUUCUCGAUCUAACAAAAAAGACAAAUCUGCCACAAAGCUUGAGAGCAUCUUCGGAUGCAGAUGCGGCAGCCUUCGGUUGCGCGAUAGCGCCAACGGUCUCAACUAUGACACGCAAAACGCGUGCUCCGUUGAAUGGAGUUUAUCAUG [G67U G83U U101G] — lower, ≤ -4.2
- GGAUCUUCUCGAUCUAACAAAAAAGACAAAUCUGCCACAAAGCUUGAGAGCAUCUUCGGAUGCAGACGCGGCAGCCUUCGGUGGCGCGAUAACGCUAACGUUCUCAACUAUGACACGUAAAACGCGUGCUCCGUUGAAUGGAGUUUAUCAUG [G67C G92A C96U C118U] — lower, ≤ -4.2
- GGAUCUUCUCGAUCUAACAAAAAAGACAAAUCUGCCACAAAGCUUGAGAGCAUCUUCGGAUGCAGACGCGGCAGCCUUCGGUGGCGCCAUAGCGCCAACGUUCUCAACUAUGACAGGCAAAUCGCGUUCUCCGUUGAAUGGAGAUUAUCAUG [G67C G88C C116G A122U G128U U144A] — lower, ≤ -4.2
- GGAUCUUCUCGAUCUAACAAAAAAGACAAAUCUGCCACAAAGCUUGAGAGCAUCUUCGGAUGCAGAUGCGGCAGCGUUCGGUGGCGCGAUAGCGCCAACGUUCUCAACUAUGACACGCAAAACGCGUGCUCCGUUGAAUGGAAUUUAUCGUG [G67U C76G G143A A150G] — lower, ≤ -4.2
- GGAUCUUCUCGAUCUAACAAAAAAGACAAAUCUGCCACAAAGCUUGAGAGCAUCUUCGGAUGCAGAUGCGGCACCCUUCGGUGGCGCGAUAGCGCCAACGUUUUCAACUAUGACACGCAAUACGCGUGCUCCGUUGCAUGGAGGUUAUCAUG [G67U G74C C103U A121U A137C U144G] — lower, ≤ -4.2
- GGAUCUUCUCGAUCUAACAAAAAAGACAAAUCUGCCACAAAGCUUGAGAGCAUCUUCGGAUGCAGAUGCGGCAGCCUUCGGUGGGGCGAUAGCGCCAACGUUCUCAACUAUGACACGCAAAACGCGUGCUCCGUUGAAUGGAGUUUAUCAUG [G67U C85G] — lower, ≤ -4.2
